Key:
proteinase K [1] = target: T1, proteinase K (Parengyodontium album, UniProt P06873); assay: Proteinase K digestion of synthetic Aβ in lysis buffer, western blot; assay type: in vitro ADME; details: 1 h, 37°C, western blot 6E10; for Immunoreactivity with 6E10 after PK digestion (PK sensitivity): peptide in 1X PBS diluted in 1X lysis buffer, no DMSO, smallest amount of PK 5 μg/ml (range 0-50 μg/ml); for PK sensitivity of peptides dissolved in DMSO: 1X lysis buffer, PK 0-50 μg/ml
proteinase K [2] = target: T1, proteinase K; assay: Proteinase K digestion of synthetic Aβ spiked into non-AD brain homogenate; details: spiked into non-AD brain homogenate with no detectable endogenous Aβ; P2 fraction; PK 0-50 μg/ml, 1 h, 37°C; western blot 6E10
[3] = assay type: physicochemical; details: spiked into HuPrP-Tg mouse brain homogenate, RT 12 h, 10-60% sucrose step gradient, 200,000 x g, 1 h, 4°C, western blot 6E10; for Sucrose gradient fractions holding the majority of the peptide: 12 fractions from top
[4] = Negative-stain electron microscopy of synthetic Aβ with and without PK digestion; assay type: physicochemical; details: for Fibrils seen by electron microscopy after PK digestion: PK-treated peptide preparations, negative stain EM; for Fibril formation and morphology by electron microscopy: peptide in PBS, without PK, negative stain 2% uranylacetate, 80 kV
Description: To further rule out this possibility, PK-treated peptides were also examined by EM.
The excess buffered-protein solution was removed, and negatively stained with 2% uranylacetate. Grids were then washed by touching a buffer and the excess buffer blotted off immediately using a Whatman filter paper. Grids were then air-dried and kept at room temperature. Negatively stained specimens were observed by a JEOL 1200EX electron microscope (JEOL, Tokyo, Japan) with 80 kV of electron acceleration voltage.

[5] = pH 7.5

T1 sequence (P06873 106-384): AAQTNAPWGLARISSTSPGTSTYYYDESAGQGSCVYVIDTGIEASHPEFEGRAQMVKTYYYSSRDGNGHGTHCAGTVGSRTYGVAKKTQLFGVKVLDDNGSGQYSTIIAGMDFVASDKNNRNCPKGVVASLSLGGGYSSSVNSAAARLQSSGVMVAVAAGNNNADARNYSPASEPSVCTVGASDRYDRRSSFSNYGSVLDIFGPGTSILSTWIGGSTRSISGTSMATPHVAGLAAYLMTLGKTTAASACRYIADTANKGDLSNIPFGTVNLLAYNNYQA

Row | Substance | Immunoreactivity with 6E10 after PK digestion (PK sensitivity) (proteinase K [1]) | PK sensitivity of peptides dissolved in DMSO (proteinase K [1]) | PK resistance of spiked peptide (PK concentration resisted) (proteinase K [2]) [µg/mL] | Sucrose gradient fractions holding the majority of the peptide [3] | Large aggregates in bottom fractions 10-12 of the sucrose gradient [3] | Fibrils seen by electron microscopy after PK digestion [4] | Fibril formation and morphology by electron microscopy [4] | Detergent solubility: fraction in which the peptide is detected (S2 supernatant = soluble, P2 pellet = insoluble) [5]
1 | Aβ42: synthetic amyloid β peptide Aβ42 purchased from Sigma | No immunoreactivity | PK-sensitive | ≥ 50 | between fractions 1 and 3 | smaller amounts | no fibrils or significant structures could be observed | numerous but short fibrils | 
2 | Aβ40: synthetic amyloid β peptide Aβ40 purchased from Sigma | No immunoreactivity | PK-sensitive | ≥ 50 | between fractions 1 and 3 | detected in significant amounts in fractions 10 to 12 | no fibrils or significant structures could be observed | relatively scarce but much longer | only in the S2 but not in the P2
